According to the supplement of paper PMC7877785:
± gives the uncertainty stated by the source.

Assay: self-splicing fitness, log relative to wild type (ln ratio); higher = more splicing; Tetrahymena group I intron in knt gene, E. coli kanamycin selection, DiMSum; sequences stand for … in CUCUCU…GGAGGGAAAAGUUAUCAGGCAUGCACCUGGUAGCUAGUCUUUAAACCAAUAGAUUGCAUCGGUUUAAAAGGCAAGACCGUCAAAUUGCGGGAAAGGGGUCAACAGCCGUUCAGUACCAAGUCUCAGGGGAAACUUUGAGAUGGCCUUGCAAAGGGUAUGGUAAUAAGCUGACGGACAUGGUCCUAACCACGCAGCCAAGUCCUAAGUCAACAGAUCUUCUGUUGAUAUGGAUGCAGUUCACAGACUAAAUGUCGGUCGGGGAAGAUGUAUUCUUCUCAUAAGAUAUAGUCGGACCUCUCCUUAAUGGGAGCUAGCGGAUGAAGUGAUGCAACACUGGAGCCGCUGGGAACUAAUUUGUAUGCGAAAGUAUAUUGAUUAGUUUUGGAGUACUCGUGGUCG
How it was run: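 Library with all eight P1ex-region intron nucleotides randomised, intron inside the knt kanamycin-resistance gene on pET-22b(+), in E. coli BL21(DE3). Cells grew overnight at 37°C or 30°C on LB agar with or without 25 μg/mL kanamycin (plus 100 μg/mL carbenicillin, 50 μM IPTG, 0.2% rhamnose), in six replicate transformations. Pooled colonies were amplicon-sequenced on Illumina HiSeq 2500. DiMSum fitness is the error-weighted combination of wild-type-normalised replicate fold changes, kanamycin versus none.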

Sequence	self-splicing fitness (ln) (30 °C)	self-splicing fitness (ln) (37 °C)
AGUAAGCAAUAUUACGCGUC	-3.37 ± 0.19	-2.2 ± 0.17
AGUAAGCAAUAUUACGCUCA	-0.405 ± 0.12	-0.595 ± 0.11
AGUAAGCAAUAUUACGCUCG	-0.783 ± 0.17	-0.584 ± 0.21
AGUAAGCAAUAUUACGCUCU	-1.96 ± 0.2	-1.59 ± 0.27
AGUAAGCAAUAUUACGCUGC	-2.97 ± 0.29	–
AGUAAGCAAUAUUACGCUGU	-2.78 ± 0.22	-1.88 ± 0.3
AGUAAGCAAUAUUACGGAAC	-1.82 ± 0.25	-2.6 ± 0.27
AGUAAGCAAUAUUACGGACA	-0.314 ± 0.091	-0.393 ± 0.11
AGUAAGCAAUAUUACGGCAG	-2.1 ± 0.16	-1.53 ± 0.2
AGUAAGCAAUAUUACGGCCG	-0.888 ± 0.11	-0.63 ± 0.18
AGUAAGCAAUAUUACGGGAU	-3.01 ± 0.25	-1.12 ± 0.15
AGUAAGCAAUAUUACGGGGG	-3.08 ± 0.22	-2.87 ± 0.29
AGUAAGCAAUAUUACGGUGG	-3.68 ± 0.2	-1.66 ± 0.16
AGUAAGCAAUAUUACGUAGC	-4.37 ± 0.42	-3.1 ± 0.47
AGUAAGCAAUAUUACGUCCC	-0.303 ± 0.15	0.019 ± 0.18
AGUAAGCAAUAUUACGUCGG	-3.61 ± 0.35	-1.8 ± 0.29
AGUCAGCAAUAUUACGAACC	-0.519 ± 0.15	-0.0581 ± 0.16
AGUCAGCAAUAUUACGAACG	0.155 ± 0.087	0.717 ± 0.15
AGUCAGCAAUAUUACGAAUC	-0.727 ± 0.13	-0.18 ± 0.19
AGUCAGCAAUAUUACGACCU	-0.358 ± 0.081	0.103 ± 0.11
AGUCAGCAAUAUUACGAUAA	-0.337 ± 0.087	-0.697 ± 0.1
AGUCAGCAAUAUUACGAUAC	-1.69 ± 0.12	-0.336 ± 0.11
AGUCAGCAAUAUUACGAUCG	-0.601 ± 0.091	0.358 ± 0.14
AGUCAGCAAUAUUACGAUUU	-0.399 ± 0.064	-0.286 ± 0.11
AGUCAGCAAUAUUACGCAAU	-0.997 ± 0.075	0.245 ± 0.096

Sequence	self-splicing fitness (ln) (30 °C)	self-splicing fitness (ln) (37 °C)
AGUCAGCAAUAUUACGCACU	-2.19 ± 0.12	-1.42 ± 0.13
AGUCAGCAAUAUUACGCAGC	-2.28 ± 0.15	-1.22 ± 0.16
AGUCAGCAAUAUUACGCCAG	-3.55 ± 0.34	-2.47 ± 0.31
AGUCAGCAAUAUUACGCCCA	-1.19 ± 0.13	0.479 ± 0.18
AGUCAGCAAUAUUACGCCGA	-1.92 ± 0.25	-1.92 ± 0.3
AGUCAGCAAUAUUACGCGUG	-1.28 ± 0.097	-0.66 ± 0.11
AGUCAGCAAUAUUACGCGUU	0.159 ± 0.077	0.0714 ± 0.085
AGUCAGCAAUAUUACGCUAG	-3.33 ± 0.18	-2.64 ± 0.23
AGUCAGCAAUAUUACGCUUG	-2.79 ± 0.15	-0.514 ± 0.15
AGUCAGCAAUAUUACGGCAG	-0.629 ± 0.11	-0.145 ± 0.15
AGUCAGCAAUAUUACGGCUC	-3.84 ± 0.43	-1.54 ± 0.45
AGUCAGCAAUAUUACGGGAC	-2.45 ± 0.18	-2.16 ± 0.24
AGUCAGCAAUAUUACGGGCA	-0.79 ± 0.095	-0.281 ± 0.11
AGUCAGCAAUAUUACGGGCU	-2.43 ± 0.19	-3.12 ± 0.43
AGUCAGCAAUAUUACGGGUU	-0.799 ± 0.077	-0.628 ± 0.086
AGUCAGCAAUAUUACGGUCA	-0.726 ± 0.11	-0.323 ± 0.1
AGUCAGCAAUAUUACGUAAC	-1.88 ± 0.099	-1.37 ± 0.11
AGUCAGCAAUAUUACGUAAU	-1.16 ± 0.062	-0.387 ± 0.088
AGUCAGCAAUAUUACGUCAA	-2.24 ± 0.12	-1.09 ± 0.1
AGUCAGCAAUAUUACGUCAU	-0.181 ± 0.072	-0.133 ± 0.09
AGUCAGCAAUAUUACGUCGC	-1.65 ± 0.13	-1.14 ± 0.19
AGUCAGCAAUAUUACGUCGG	-0.874 ± 0.086	-1.23 ± 0.11
AGUCAGCAAUAUUACGUGUG	-2.26 ± 0.099	-1.57 ± 0.11
AGUGAGCAAUAUUACGAAAU	–	-2.07 ± 0.39
AGUGAGCAAUAUUACGAAGC	-4.89 ± 0.46	-1.55 ± 0.33

Sequence	self-splicing fitness (ln) (30 °C)	self-splicing fitness (ln) (37 °C)
AGUGAGCAAUAUUACGAGAU	-3.9 ± 0.23	-1.49 ± 0.19
AGUGAGCAAUAUUACGAGGU	-3.63 ± 0.31	–
AGUGAGCAAUAUUACGAUCC	-0.375 ± 0.25	-0.193 ± 0.22
AGUGAGCAAUAUUACGAUCU	-1.7 ± 0.14	-1.13 ± 0.15
AGUGAGCAAUAUUACGAUUG	-3.59 ± 0.42	-2.77 ± 0.38
AGUGAGCAAUAUUACGCAUC	-3.32 ± 0.28	-0.505 ± 0.26
AGUGAGCAAUAUUACGCAUG	-3.22 ± 0.29	-3.25 ± 0.43
AGUGAGCAAUAUUACGCCGG	-2.67 ± 0.26	-1.81 ± 0.38
AGUGAGCAAUAUUACGCGAC	-1.74 ± 0.32	-1.46 ± 0.31
AGUGAGCAAUAUUACGCUCC	-1.69 ± 0.45	–
AGUGAGCAAUAUUACGGACC	-0.918 ± 0.22	-0.539 ± 0.33
AGUGAGCAAUAUUACGGAUA	-2.82 ± 0.28	-0.678 ± 0.35
AGUGAGCAAUAUUACGGAUC	-2.42 ± 0.25	-1.25 ± 0.34
AGUGAGCAAUAUUACGGAUG	-3.2 ± 0.24	-3.06 ± 0.3
AGUGAGCAAUAUUACGGCGC	-0.869 ± 0.35	-0.599 ± 0.2
AGUGAGCAAUAUUACGGCUG	-2.19 ± 0.12	-0.36 ± 0.16
AGUGAGCAAUAUUACGGGAA	-2.94 ± 0.29	–
AGUGAGCAAUAUUACGGGAU	-3.44 ± 0.26	-1.7 ± 0.29
AGUGAGCAAUAUUACGGGCU	-4.57 ± 0.39	-2.72 ± 0.3
AGUGAGCAAUAUUACGUAAG	-3.1 ± 0.43	-2.48 ± 0.41
AGUGAGCAAUAUUACGUAGG	-4.29 ± 0.46	–
AGUGAGCAAUAUUACGUAGU	-4.14 ± 0.26	-2.82 ± 0.26
AGUGAGCAAUAUUACGUAUG	–	-2.56 ± 0.32
AGUGAGCAAUAUUACGUCAA	-0.971 ± 0.2	-2.79 ± 0.36
AGUGAGCAAUAUUACGUCAU	-1.29 ± 0.14	-2.29 ± 0.22

Sequence	self-splicing fitness (ln) (30 °C)	self-splicing fitness (ln) (37 °C)
AGUGAGCAAUAUUACGUCCU	0.0407 ± 0.17	0.233 ± 0.18
AGUGAGCAAUAUUACGUGGC	–	-1.94 ± 0.33
AGUGAGCAAUAUUACGUUCA	-3.1 ± 0.38	-2.41 ± 0.37
AGUGAGCAAUAUUACGUUCU	-1.78 ± 0.15	-1.57 ± 0.14
AGUUAGCAAUAUUACGAACC	-1 ± 0.15	-0.401 ± 0.17
AGUUAGCAAUAUUACGACGU	0.261 ± 0.07	0.647 ± 0.083
AGUUAGCAAUAUUACGACUC	-2.36 ± 0.32	-1.83 ± 0.38
AGUUAGCAAUAUUACGAGGU	-3.43 ± 0.16	-1.55 ± 0.17
AGUUAGCAAUAUUACGAGUA	-2.73 ± 0.17	-1.64 ± 0.13
AGUUAGCAAUAUUACGCCGG	-2.98 ± 0.34	-2.26 ± 0.39
AGUUAGCAAUAUUACGCGUC	-3.11 ± 0.48	-0.621 ± 0.33
AGUUAGCAAUAUUACGCGUU	-1.32 ± 0.12	-0.816 ± 0.15
AGUUAGCAAUAUUACGGAGA	-1.99 ± 0.27	-2.86 ± 0.48
AGUUAGCAAUAUUACGGCUC	-3.53 ± 0.26	-2.46 ± 0.34
AGUUAGCAAUAUUACGGGGU	-3.76 ± 0.46	-2.61 ± 0.33
AGUUAGCAAUAUUACGGUAG	-3.77 ± 0.3	-2.11 ± 0.34
AGUUAGCAAUAUUACGGUGA	-1.43 ± 0.13	-1.13 ± 0.21
AGUUAGCAAUAUUACGGUUA	-1.54 ± 0.12	-0.607 ± 0.087
AGUUAGCAAUAUUACGUAAG	-2.42 ± 0.21	-0.816 ± 0.27
AGUUAGCAAUAUUACGUAGU	-2.77 ± 0.17	-1.94 ± 0.17
AGUUAGCAAUAUUACGUAUU	-2.02 ± 0.1	-1.04 ± 0.11
AGUUAGCAAUAUUACGUCCA	-0.989 ± 0.16	-0.0648 ± 0.18
